Results from patent publication US20050089932A1, “Novel proteins with targeted binding” (Avidia Research Institute, priority 2001, published 2005).

Legend:
[1] = commercial drugs; cited from earlier work
[2] = biological target: T1, recombinant human FcERI protein (human, UniProt P12319 26-205, limits assumed); assay: Biacore, human IgE on CM5 chip
T1 construct: also called recombinant soluble IgE receptor; IgE receptor R1
T1 sequence (looked up): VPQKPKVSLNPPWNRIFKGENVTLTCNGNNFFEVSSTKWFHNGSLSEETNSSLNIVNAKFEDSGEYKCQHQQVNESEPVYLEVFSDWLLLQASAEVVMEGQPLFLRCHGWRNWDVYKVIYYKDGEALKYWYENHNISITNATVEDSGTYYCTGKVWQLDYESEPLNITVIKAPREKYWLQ
Description: (§1) Human IgE was immobilized to a CM5 chip (BiaCore) using standard NHS/EDC methods. Sample proteins were dialyzed into HBS buffer overnight, and the dialysis buffer was used as a running buffer for the experiment. Sample proteins were run successively over IgE or ethanolamine coated flow cells, and the data analyzed using the BiaEvaluation software package.

[3] = biological target: human IgE (Homo sapiens, UniProt P01854); assay: Biacore affinity measurements on immobilized human IgE; assay type: binding; conditions: IgE on CM5 chip
Description: as §1

[4] = tested on: monkey PBMC; assay: PBMC assay on monkey cells; assay type: cell-based, cynomolgus monkeys
Description: (§2) Efficacy assays were performed using human and monkey PBMC as described above. CD28 results in PBMC assays:
(§3) In order to assay the ex-vivo efficacy of monomers, they were tested on isolated peripheral blood lymphocytes (PBMC). […]. Monomer protein was added in varying concentrations to each culture and incubation occurred for 3 days at 37° C. in a CO2 containing atmosphere. During the last 9 hours, cultures were pulsed with 1 uCi per well of ^3H thymidine (ICN, Costa Mesa, Calif.) and the incorporation of radioactivity was measured on a Wallac Trilux Microbeta scintillation counter (Perkin Elmer, Boston, Mass.). See, FIG. 23.

[5] = tested on: human PBMC; assay: PBMC assay on human cells; assay type: cell-based
Description: as §2, §3

## Rituxan: CD20 Antibody
[1]
  Human T1/2: 78 h

## Remicade: TNFa Antibody
[1]
  Human T1/2: 216 h

## Enbrel
[1]
  Human T1/2: 103 h

B1: human IgE (antibody)
chain: ASTQSPSVFPLTRCCKNIPSNATSVTLGCLATGYFPEPVMVTWDTGSLNGTTMTLPATTLTLSGHYATISLLTVSGAWAKQMFTCRVAHTPSSTDWVDNKTFSVCSRDFTPPTVKILQSSCDGGGHFPPTIQLLCLVSGYTPGTINITWLEDGQVMDVDLSTASTTQEGELASTQSELTLSQKHWLSDRTYTCQVTYQGHTFEDSTKKCADSNPRGVSAYLSRPSPFDLFIRKSPTITCLVVDLAPSKGTVNLTWSRASGKPVNHSTRKEEKQRNGTLTVTSTLPVGTRDWIEGETYQCRVTHPHLPRALMRSTTKTSGPRAAPEVYAFATPEWPGSRDKRTLACLIQNFMPEDISVQWLHNEVQLPDARHSTTQPRKTKGSGFFVFSRLEVTRAEWEQKDEFICRAVHEAASPSQTVQRAVSVNPGK
notes: Immobilized on plates or on a CM5 chip; variable regions and light chain not described
[2]
  Kd: 450 nM

B2: FcERI: recombinant human FcERI protein, the IgE receptor (protein)
chain: VPQKPKVSLNPPWNRIFKGENVTLTCNGNNFFEVSSTKWFHNGSLSEETNSSLNIVNAKFEDSGEYKCQHQQVNESEPVYLEVFSDWLLLQASAEVVMEGQPLFLRCHGWRNWDVYKVIYYKDGEALKYWYENHNISITNATVEDSGTYYCTGKVWQLDYESEPLNITVIKAPREKYWLQ
[3]
  ka: 8.4 × 10^3
  kd: 3.8 × 10^−3

B3: CD28 10: CD28 trimer, sequence >CD28-A10 (protein)
chain: CGPGRFQCESGQCVPATWVCDGDDDCADGSDEKSCATTAPTCESNQFQCGSGQCLPGTWRCDGVNDCADSSDETGCGRPGPGATSAPAACGPGRFQCNNGNCVPQTLGCDGDNDCGDSSDEANCSAPASEPPGSL
[4]
  inhibition: inhibition = 81%
[5]
  inhibition: inhibition = 81%
